± gives the standard deviation of the averaged measurements.
Key:
Saccharomyces cerevisiae [1] = test: protein stability index of tFT-peptide fusion (C-terminal peptide) (PSI (0-1 scale)); higher = more stable (slower turnover); settings: genetic background: wild type; temperature: 30 C
Saccharomyces cerevisiae [2] = test: as above
Protocol: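 MPS profiling in S. cerevisiae of the tFT-X12 degron library: putative degron peptides plus stable controls, 12 aa, fused to the C-terminus of a sfGFP-mCherry timer. Cells are FACS-sorted into 8 mCherry/sfGFP bins and deep-sequenced. PSI runs from 0 (unstable) to 1 (stable). Backgrounds are wild type, das1Δ and doa10Δ at 30 °C, and wild type, das1Δ, cdc34-1 and cdc53-1 at 37 °C; 2-3 technical replicates each.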

[3] = genetic background: cdc34-1, temperature: 37 C
[4] = genetic background: cdc53-1, temperature: 37 C
[5] = genetic background: das1 deletion, temperature: 30 C
[6] = genetic background: das1 deletion, temperature: 37 C
[7] = genetic background: doa10 deletion, temperature: 30 C
[8] = genetic background: wild type, temperature: 30 C
[9] = genetic background: wild type, temperature: 37 C
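Further: PSI is a weighted mean of sequencing reads over stability bins, variants kept only with over 10 reads, mCherry proximal and sfGFP distal, peptide attached via GGGS linker.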

Sequence | protein stability index (Saccharomyces cerevisiae [1]) | protein stability index (Saccharomyces cerevisiae [2]; [3]) | protein stability index (Saccharomyces cerevisiae [2]; [4]) | protein stability index (Saccharomyces cerevisiae [2]; [5]) | protein stability index (Saccharomyces cerevisiae [2]; [6]) | protein stability index (Saccharomyces cerevisiae [2]; [7]) | protein stability index (Saccharomyces cerevisiae [2]; [8]) | protein stability index (Saccharomyces cerevisiae [2]; [9])
MGDFGFIFVFFL | 0.502 ± 0.02 | 0.544 ± 0.007 | 0.606 ± 0.035 | 0.427 ± 0.027 | 0.6479 ± 0.0044 | 0.383 ± 0.0084 | 0.414 ± 0.008 | 0.59233 ± 0.00044
MVVSLVLCFWAS | 0.255 ± 0.045 | 0.248 ± 0.026 | 0.331 ± 0.069 | 0.257 ± 0.024 | 0.409 ± 0.016 | 0.222 ± 0.0091 | 0.244 ± 0.018 | 0.414 ± 0.055
MWRWASKCRFSM | 0.367 ± 0.011 | 0.668 ± 0.025 | 0.706 ± 0.015 | 0.634 ± 0.015 | 0.759 ± 0.0097 | 0.231 ± 0.012 | 0.245 ± 0.022 | 0.515 ± 0.047
NFSALECKVQLT | 0.75 ± 0.052 | 0.747 ± 0.076 | 0.727 ± 0.018 | 0.625 ± 0.018 | 0.725 ± 0.017 | 0.647 ± 0.042 | 0.653 ± 0.026 | 0.689 ± 0.0082
NFTDMGRSLYIN | 0.279 ± 0.057 | 0.592 ± 0.056 | 0.788 ± 0.018 | 0.663 ± 0.015 | 0.775 ± 0.0087 | 0.166 ± 0.0031 | 0.208 ± 0.054 | 0.434 ± 0.024
NHKNANAATLIN | 0.4548 ± 0.0018 | 0.645 ± 0.053 | 0.7192 ± 0.0061 | 0.641 ± 0.036 | 0.7266 ± 0.0038 | 0.268 ± 0.016 | 0.352 ± 0.038 | 0.6016 ± 0.0051
NVVIGLHLLVYI | 0.326 ± 0.049 | 0.205 ± 0.021 | 0.313 ± 0.041 | 0.212 ± 0.047 | 0.419 ± 0.017 | 0.189 ± 0.022 | 0.227 ± 0.014 | 0.388 ± 0.018
NYVVFVRGIKIT | 0.186 ± 0.1 | 0.585 ± 0.039 | 0.609 ± 0.02 | 0.533 ± 0.026 | 0.633 ± 0.011 | 0.104 ± 0.0022 | 0.114 ± 0.016 | 0.177 ± 0.016
PCVLAIYVWIRS | 0.163 ± 0.054 | 0.0479 ± 0.016 | 0.169 ± 0.019 | 0.154 ± 0.037 | 0.2704 ± 0.0022 | 0.083 ± 0.016 | 0.107 ± 0.016 | 0.173 ± 0.011
PDRSTILHISGF | 0.699 ± 0.019 | 0.721 ± 0.021 | 0.7606 ± 0.001 | 0.642 ± 0.034 | 0.744 ± 0.022 | 0.644 ± 0.037 | 0.633 ± 0.0087 | 0.728 ± 0.023
PETSRFALNEWG | 0.727 ± 0.059 | 0.709 ± 0.04 | 0.748 ± 0.018 | 0.665 ± 0.0095 | 0.755 ± 0.0086 | 0.674 ± 0.043 | 0.68 ± 0.02 | 0.717 ± 0.011
PFFFSFILVLFW | 0.264 ± 0.028 | 0.172 ± 0.0087 | 0.172 ± 0.036 | 0.219 ± 0.0092 | 0.286 ± 0.034 | 0.2355 ± 0.0021 | 0.186 ± 0.035 | 0.244 ± 0.02
PFFHVFLLLLLI | 0.195 ± 0.0064 | 0.153 ± 0.011 | 0.1359 ± 0.00032 | 0.188 ± 0.022 | 0.258 ± 0.0067 | 0.313 ± 0.021 | 0.154 ± 0.017 | 0.213 ± 0.0042
PIKIYGYLTTVV | 0.523 ± 0.045 | 0.597 ± 0.024 | 0.644 ± 0.023 | 0.517 ± 0.032 | 0.653 ± 0.02 | 0.474 ± 0.032 | 0.475 ± 0.02 | 0.6337 ± 0.0023
PISLYFVWFFFF | 0.195 ± 0.074 | 0.242 ± 0.0081 | 0.363 ± 0.033 | 0.251 ± 0.024 | 0.369 ± 0.04 | 0.15 ± 0.011 | 0.147 ± 0.0072 | 0.269 ± 0.015
PLFPLLGLLFFF | 0.461 ± 0.046 | 0.595 ± 0.029 | 0.6147 ± 0.0041 | 0.513 ± 0.032 | 0.592 ± 0.02 | 0.472 ± 0.032 | 0.496 ± 0.039 | 0.558 ± 0.018
PPGLLPPCLLVV | 0.39 ± 0.05 | 0.358 ± 0.027 | 0.373 ± 0.0093 | 0.307 ± 0.035 | 0.444 ± 0.02 | 0.2485 ± 0.00054 | 0.301 ± 0.028 | 0.395 ± 0.011
PPLPPVCPSPSL | 0.485 ± 0.0061 | 0.665 ± 0.031 | 0.74 ± 0.027 | 0.658 ± 0.0035 | 0.7274 ± 0.0068 | 0.667 ± 0.023 | 0.685 ± 0.028 | 0.714 ± 0.004
PPPNSSTSPPCS | 0.196 ± 0.015 | 0.6572 ± 0.003 | 0.725 ± 0.017 | 0.661 ± 0.036 | 0.683 ± 0.011 | 0.681 ± 0.029 | 0.687 ± 0.0096 | 0.677 ± 0.013
PPRRCFPLLLFF | 0.235 ± 0.036 | 0.44 ± 0.094 | 0.4471 ± 0.0019 | 0.445 ± 0.022 | 0.546 ± 0.01 | 0.208 ± 0.0085 | 0.209 ± 0.014 | 0.331 ± 0.012
PPSPVPPIWYLA | 0.372 ± 0.0055 | 0.636 ± 0.037 | 0.7595 ± 0.0041 | 0.707 ± 0.017 | 0.753 ± 0.029 | 0.233 ± 0.0083 | 0.261 ± 0.045 | 0.417 ± 0.019
PRQGGDFVARVG | 0.7001 ± 0.0014 | 0.691 ± 0.0076 | 0.726 ± 0.024 | 0.638 ± 0.016 | 0.7341 ± 0.0065 | 0.631 ± 0.027 | 0.641 ± 0.015 | 0.721 ± 0.022
PRSFFYIQFVFA | 0.324 ± 0.0069 | 0.301 ± 0.016 | 0.369 ± 0.025 | 0.233 ± 0.016 | 0.431 ± 0.011 | 0.194 ± 0.011 | 0.224 ± 0.022 | 0.375 ± 0.014
PSDVLERVIRLL | 0.265 ± 0.026 | 0.616 ± 0.027 | 0.714 ± 0.023 | 0.647 ± 0.019 | 0.7309 ± 0.00081 | 0.136 ± 0.0023 | 0.168 ± 0.01 | 0.277 ± 0.051
PSLPPLPPFAAL | 0.749 ± 0.052 | 0.73 ± 0.0098 | 0.7412 ± 0.0013 | 0.676 ± 0.051 | 0.75 ± 0.021 | 0.663 ± 0.0099 | 0.661 ± 0.02 | 0.72 ± 0.024
PSPVPPPSSPSP | 0.71 ± 0.012 | 0.682 ± 0.029 | 0.728 ± 0.027 | 0.67 ± 0.026 | 0.717 ± 0.022 | 0.674 ± 0.021 | 0.684 ± 0.029 | 0.7075 ± 0.0063
PSPVRSSYASTL | 0.711 ± 0.049 | 0.6664 ± 0.0066 | 0.704 ± 0.024 | 0.6396 ± 0.0033 | 0.7222 ± 0.0029 | 0.6532 ± 0.0047 | 0.665 ± 0.02 | 0.68992 ± 0.00058
PSVRCVVACFIN | 0.277 ± 0.015 | 0.241 ± 0.021 | 0.584 ± 0.13 | 0.464 ± 0.02 | 0.576 ± 0.0068 | 0.137 ± 0.028 | 0.172 ± 0.039 | 0.165 ± 0.015
PVGRSVFFVWFL | 0.458 ± 0.019 | 0.65 ± 0.071 | 0.7009 ± 0.0022 | 0.587 ± 0.019 | 0.744 ± 0.029 | 0.3522 ± 0.0035 | 0.367 ± 0.016 | 0.554 ± 0.013
PVKGTMIKAKNT | 0.354 ± 0.068 | 0.659 ± 0.088 | 0.73 ± 0.027 | 0.607 ± 0.026 | 0.71 ± 0.0026 | 0.184 ± 0.017 | 0.193 ± 0.024 | 0.341 ± 0.043
